The source of these data is patent publication US20230357422A1 (published 2023).

Where a chain is given by its changes, count along the chain named.

B1: GITR-his (receptor, human, UniProt Q9Y5U5 26-162, looked up)
chain: QRPTGGPGCGPGRLLLGTGTDARCCRVHTTRCCRDYPGEECCSEWDCMCVQPEFHCGDPCCTTCRHHPCPPGQGVQSQGKFSFGFQCIDCASGTFSGGHEGHCKPWTDCTQFGFLTVFPGNKTHNAVCVPGSPPAEP
notes: 'Human' heads the list '4-1BB-his, GITR-his, OX40-his, CD40-his' and is read as applying to all four; not shown: his tag
B2: OX40-his (receptor, human, UniProt P43489 29-216, looked up)
chain: LHCVGDTYPSNDRCCHECRPGNGMVSRCSRSQNTVCRPCGPGFYNDVVSSKPCKPCTWCNLRSGSERKQLCTATQDTVCRCRAGTQPLDSYKPGVDCAPCPPGHFSPGDNQACKPWTNCTLAGKHTLQPASNSSDAICEDRDPPATQPQETQGPPARPITVQPTEAWPRTSQGPSTRPVEVPGGRAVA
notes: 'Human' heads the list and is read as applying to all four proteins; not shown: his tag
B3: HZ-L-Yr-13&14-16-2 (Fc fusion)
chain: QVQLVESGGGVVQPGRSLRLSCAASGSTFSIVAMGWYRQAPGKGLELVASIITGDGDTNYADSVKGRFTISRDNSKNTMYLQMNSLRAEDTAVYYCYARTGYGSSWLMGHEYDYWGQGTQVTVSSTHTCPPCPAPEAAGGPSVFLFPPKPKDTLMISRTPEVTCVVVDVSHEDPEVKFNWYVDGVEVHNAKTKPREEQYNSTYRVVSVLTVLHQDWLNGKEYKCKVSNKALPAPIEKTISKAKGQPREPQVYTLPPSREEMTKNQVSLTCLVKGFYPSDIAVEWESNGQPENNYKTTPPVLDSDGSFFLYSKLTVDKSRWQQGNVFSCSVMHEALHNHYTQKSLSLSPG
B4: Hu-A-NA-19-1 (Fc fusion)
chain: EVQLVESGGGLVKPGGSLRLSCAASGAIFRINTGAWYRQAPGKQRELVASLTTYGKTTYADFVKGRFTISRDDSKNTLYLQMNSLKTEDTAVYYCHIGPEPRYGYWGQGTLVTVSSTHTCPPCPAPEAAGGPSVFLFPPKPKDTLMISRTPEVTCVVVDVSHEDPEVKFNWYVDGVEVHNAKTKPREEQYNSTYRVVSVLTVLHQDWLNGKEYKCKVSNKALPAPIEKTISKAKGQPREPQVYTLPPSREEMTKNQVSLTCLVKGFYPSDIAVEWESNGQPENNYKTTPPVLDSDGSFFLYSKLTVDKSRWQQGNVFSCSVMHEALHNHYTQKSLSLSPG
notes: also called HZ-A-Na-19-1
B5: Hu-A-NA-19-2 (Fc fusion)
chain: B4 chain with Q44G, R45L
notes: also called HZ-A-Na-19-2
B6: L-Yr-13&14-06 (Fc fusion)
chain: QVQLQESGGGLVEAGGSLRLSCAASGSIFSINVMGWYRQAPGKQRELVAVITSDYSTNYADSVKGRFTISRDNAKNTVYLQMNSLKPEDTAVYHCAATGYGSSPWYWGQGTQVTVSSTHTCPPCPAPEAAGGPSVFLFPPKPKDTLMISRTPEVTCVVVDVSHEDPEVKFNWYVDGVEVHNAKTKPREEQYNSTYRVVSVLTVLHQDWLNGKEYKCKVSNKALPAPIEKTISKAKGQPREPQVYTLPPSREEMTKNQVSLTCLVKGFYPSDIAVEWESNGQPENNYKTTPPVLDSDGSFFLYSKLTVDKSRWQQGNVFSCSVMHEALHNHYTQKSLSLSPG
B7: L-Yr-13&14-01 (Fc fusion)
chain: QVQLQESGGGLVQAGGSLRLSCAASGSFNAMGWWRQAPGKQREFVAIITRDGSTNLADSVKGRFTISSDNAKNTWFLQMNSLKPEDTAVYYCSASDYGSSLYYWGQGTQVTVSSTHTCPPCPAPEAAGGPSVFLFPPKPKDTLMISRTPEVTCVVVDVSHEDPEVKFNWYVDGVEVHNAKTKPREEQYNSTYRVVSVLTVLHQDWLNGKEYKCKVSNKALPAPIEKTISKAKGQPREPQVYTLPPSREEMTKNQVSLTCLVKGFYPSDIAVEWESNGQPENNYKTTPPVLDSDGSFFLYSKLTVDKSRWQQGNVFSCSVMHEALHNHYTQKSLSLSPG
B8: L-Yr-13&14-05 (Fc fusion)
chain: QVQLQESGGGLVQAGGSLRLSCAASGRTLSGYVMGWFRQASGKERELVAAISSGGSTYYEDSVKGRFTISRDNAKNTMYLQMNSLKPEDTAVYYCAADPRRLTGLYDYWGQGTQVTVSSTHTCPPCPAPEAAGGPSVFLFPPKPKDTLMISRTPEVTCVVVDVSHEDPEVKFNWYVDGVEVHNAKTKPREEQYNSTYRVVSVLTVLHQDWLNGKEYKCKVSNKALPAPIEKTISKAKGQPREPQVYTLPPSREEMTKNQVSLTCLVKGFYPSDIAVEWESNGQPENNYKTTPPVLDSDGSFFLYSKLTVDKSRWQQGNVFSCSVMHEALHNHYTQKSLSLSPG
B9: L-Yr-13&14-03 (Fc fusion)
chain: QVQLQESGGGLVQPGESLRLSCDSGRIFSYNFMGWYRQAPGKQRELVASITWGGTIKYADSVKGRFTISRHDAENTVYLQMNSLKSEDTAVYYCHAATDTGVIYWGQGTQVTVSSTHTCPPCPAPEAAGGPSVFLFPPKPKDTLMISRTPEVTCVVVDVSHEDPEVKFNWYVDGVEVHNAKTKPREEQYNSTYRVVSVLTVLHQDWLNGKEYKCKVSNKALPAPIEKTISKAKGQPREPQVYTLPPSREEMTKNQVSLTCLVKGFYPSDIAVEWESNGQPENNYKTTPPVLDSDGSFFLYSKLTVDKSRWQQGNVFSCSVMHEALHNHYTQKSLSLSPG
B10: A-Ye-23 (Fc fusion)
chain: QVQLQESGGGLVQPGGSLRLSCAASGFSLGLYAIAWFRQAPGKEREWVSCIEKSDSSAYYADSVKGRFTVSRDNAKNTVDLQMNRLSPEDTAVYYCAAPQSDCFHYKENDYWGQGTQVTVSSTHTCPPCPAPEAAGGPSVFLFPPKPKDTLMISRTPEVTCVVVDVSHEDPEVKFNWYVDGVEVHNAKTKPREEQYNSTYRVVSVLTVLHQDWLNGKEYKCKVSNKALPAPIEKTISKAKGQPREPQVYTLPPSREEMTKNQVSLTCLVKGFYPSDIAVEWESNGQPENNYKTTPPVLDSDGSFFLYSKLTVDKSRWQQGNVFSCSVMHEALHNHYTQKSLSLSPG

T1 sequence (Q07011 24-255): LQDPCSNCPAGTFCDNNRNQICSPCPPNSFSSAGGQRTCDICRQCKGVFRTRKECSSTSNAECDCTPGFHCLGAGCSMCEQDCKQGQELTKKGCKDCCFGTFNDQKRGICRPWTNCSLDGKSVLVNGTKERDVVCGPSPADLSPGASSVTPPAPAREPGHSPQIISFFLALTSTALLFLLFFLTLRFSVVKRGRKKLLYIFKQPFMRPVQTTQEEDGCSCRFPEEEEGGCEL

The target of the first test is HZ-L-Yr-13&14-16-1. In words: ELISA on coated his-tagged protein. Here is the method:
Human 4-1BB-his, GITR-his, OX40-his, CD40-his proteins (purchased from ACRO) were dissolved according to the instructions, diluted to 1 μg/ml with ELISA coating solution (purchased from Shanghai Sangon), coated on ELISA plate at 100 allowed to stand overnight at 4° C., and washed for 3 times with PBST, 5% BSA (purchased from Shanghai Sangon) was added at 200 μl/well to block for 1 hour at room temperature. The coating solution was discarded, 4-1BB antibody diluted with 1% BSA was added at 100 200 nM in three replicate wells, and incubated at room temperature for 2 hours. Washing was performed with PBST for 3 times, and goat anti-human IgG-Fc-HRP (purchased from abcam) diluted with 1% BSA was added at 100 μl/well, and incubated at room temperature for 1 hour. Washing was performed 3 times with PBST, ELISA chromogenic solution (purchased from Solarbio) was added at 100 μl/well to react at room temperature for 3 minutes, ELISA stop solution (purchased from Solarbio) was added at 50 and the absorbance value at 450 nm was read.
Turning to B1, the binding result is reported as “no binding (tested: 200 nM)”.

For the molecule B2, the binding result was “no binding (tested: 200 nM)”.

The next test has as its target T1, human 4-1BB on CHO cells (human, UniProt Q07011 24-255).
T1 construct: whole, on cells; also called CHO-h4-1BB cells; human 4-1BB CHO-S cells
Nature of the test: flow cytometry on CHO cells expressing human 4-1BB. The method, then: CHO cells overexpressing human 4-1BB (CHO-h4-1BB cells) were generated by transfection of pCHO1.0 vector (purchased from Invitrogen) encoding human 4-1BB cDNA cloned into MCS (multiple cloning site). The cell density of the expanded CHO-h4-1BB cells was adjusted to 2×10⁶ cells/ml, added at 100 μl/well to a 96-well flow plate, and centrifuged for later use. The purified 4-1BB antibody was diluted with PBS by 3-fold dilution starting from 400 nM for a total of 12 points. The above-mentioned diluted sample was added at 100 μl/well to the above-mentioned 96-well flow plate with cells, incubated at 4° C. for 30 min, and washed twice with PBS. Goat F(ab′)2 anti-human IgG-Fc (PE) (purchased from Abcam) diluted 100 times with PBS was added at 100 μl/well, incubated at 4° C. for 30 min, and washed twice with PBS. The cells resuspended with PBS was added at 100 μl/well, and detected on CytoFlex (Bechman) flow cytometer, and the corresponding MFI was calculated.
Consider B3, for which the binding result was “binds”.

With B4, the binding result was “binds”.

On to B5, for which the binding result was “binds”.

In the next test the target is T2, 4-1BB antigen (human, UniProt Q07011 24-186, limits assumed).
T2 construct: also called human 4-1BB antigen; human 4-1BB protein
T2 sequence (Q07011 24-186 limits assumed): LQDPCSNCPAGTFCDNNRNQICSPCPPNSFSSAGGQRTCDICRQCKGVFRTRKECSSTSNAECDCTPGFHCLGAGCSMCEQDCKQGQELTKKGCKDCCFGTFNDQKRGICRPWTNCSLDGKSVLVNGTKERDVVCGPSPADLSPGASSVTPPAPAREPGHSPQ
In words: BLI (ForteBio), antibody on AHQ sensor, 100 nM 4-1BB antigen, 1:1 model. The method, then: ForteBio affinity determination was performed according to the existing method (Estep, P et al., Solution-based measurement of high-throughput antibody-antigen affinity and epitope classification, MAbs, 2013.5(2):p. 270-8). Briefly, the sensor was equilibrated offline for 30 min in the assay buffer, then the baseline was established by detection online for 60 s, and the purified antibody obtained as described above was loaded onto the AHQ sensor online. Then, the sensor was put into 100 nM 4-1BB antigen to act for 5 minutes, and the sensor was transferred to PBS and dissociated for 5 minutes. Analysis of kinetics was performed using a 1:1 binding model.
B6 registered a Kd of 20.6 nM.

Molecule B7 showed a Kd of 19.5 nM.

With B8, the Kd stood at 33.5 nM.

Take B9: the Kd was 19.1 nM.

Take B10: the Kd was 23.4 nM.
